Substrate: CC(C)C[C@H](N)C(=O)O
Assay: pyrophosphate release assay of A-domain adenylation
Type: biochemical, Aspergillus terreus
Conditions: holo C-A-T-R module

B1: NRPS325 (Aspergillus terreus NIH2624) (protein)
chain: PTVERHVESQEPVVEAAVVASSSDSSSEGTMTPPSSRGINTPHTEITNLQLESVKSKACTAVQRREKMSFSQNRLWFPSAYLEQETPFNCTTSYTLTGPLDTARLENAFQRLIQRHESFRTAFYTDEVSGAAMQRVLASSPFQLRTMLGNKDDMQRVFRQIANYHFDLSVADTLVATLISHGPKDHTIVFGYHHIIMDGVSWQITLNDLARFYESDNPELPQLSQYIEFSVKQRQLVSSGAHDAKLSYWRKEFPSAPPLLPLFPFAKVGARKALTRYDTLDYIYDVDVSLVSKIKKASLAAKTTTFHFYLAAFVVLLNRFLEIDDVCLGIIDANRSDKTFLNTVGFLLDMLPLRLKVNKKERFVHTLRNTRAKAYNALEHSGVPLETILKELQVPTSATNTPLFQVLMNYRMGALRAPQMGDAKMNFLDYEDAKAPFDLAISIDEKDDGTGMLTFSMQDYMYDWEGAELLVKTYVHLLDTLATDSSQRINEVSLFDESLVNQSMVAGTGPVTGLDWAGTETISQRVDAMTAQRPDGVAVKDLNGKARTYAETQARVYALASSLQQAGITSGARVAVYCEPTVDTVALVLAIYRVGAAYIPLDVRNSHERLADVVRECKPTLILYHGATKHTLVDVAGDGQDALDIDTVPQSAAPIPDVSKLSDPAVILYTSGSTGKPKGIMLTHANLSLQFASISSALDLTDRDVVLQQSALGFDASLSQMFMALTNGGTLIHGSNRGDPVDLAALIEREGVTLTLIMISEMSALLQYGSDILSRCQSWRIALCGGEAFTVNLLRKFRDLNLPNLELYNAYGPTEASIMSSLGKVAYRRTDWGDGSVVPVGPPLPNYGVYVLDENFQPCPLGWPGELCICGPGVAEGYVGLPELTSSKFQPDQLRKPQGPSYDGWVRVYRTGDKARLLQDGSFVFLGRMDGDSQVKLRGIRIELNDISNSIVKTSKEAIVDAATIVKGTTSQTLVSFVVFAPAKVVDLERSNSSASAYLRQVIQSLPLPVYMRPAIAVPLERLPFTERGKLDTKALAAIPIQEDEETVNEELSETEQKLKQVWQDILSEQGMSLEIRRQSDFFSVGGNSLMLMRVRAKMLEVFGVSVPLAELFQASTLETLASRLDGNKTAESDNIVWNEETALDVSLPPAIAHPRDHPEKDLSVILTGSTGFLGRAIVRQLIADPRISTIHCLAVRPGRTLPEELVGSSKVIVYTGDLAAKRLGLSAPQAQEIFSSAAAIIHNGAEVSHMKSYHSLRPTNVDSTRQLVELALRSSIDSAVRTPAFHYVSTAGVGHLLGIPAFPEQSVSSSPPPVDGSDGYVAAKWASERILEQASERLGLPVFIHRPSNITGPDVGDRDIIHNVWRWSEVLRAVPDLVAAGAKGAFDFVGVETCAKGITDTLFVQASAGHLAYIHQSGENVIPVEEFGECLQRNGGADVELVPFDQWVDKAVQAGLDDLVASFLRGTKGAFQMPFLPKGLRQ
  Km: 310.0 ± 15.5 µM
  kcat: 0.287 ± 0.04 s⁻¹
